Experiments:
Format in all cases: cell-based, human
[1] = system: wild-type and variant SNAP-GIPR; assay: Constitutive and agonist-mediated internalization, reversible SNAP-tag labelling, INS-1 cells; design: key to Internalisation, GIP-only / Internalisation, Vehicle / Internalisation, +GIP: % internalization: residual fluorescence after Mesna vs pre-Mesna; conditions: Mean
Description: (§1) Twenty-four hours before the experiment, AD293 or INS-1 cells were reverse transfected with GIPR variant or wild-type plasmids using Lipofectamine 2000 in 96-well, clear-bottom, black microplates precoated with poly-D-lysine. All variants were tested in parallel on each occasion to control for transfection efficiency differences between experiments. […] Media were then removed, cells washed with PBS and then placed in TNE buffer (pH 8.6) for imaging. […] After 10 min, the well was reimaged again to detect remaining fluorescence from internalized GIPR. Images were analyzed as in the “Assessment of surface GIPR expression by SNAP-tag labeling in cell lines” section, with the residual specific fluorescence after Mesna treatment expressed relative to the pre-Mesna value to establish percentage internalization.

[2] = system: wild-type and variant SNAP-GIPR; assay: Single-concentration GIP cAMP response by HTRF in AD293 cells; conditions: Fig S3F, HTRF, mean;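 further: ratio to experiment-wide average response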
Description: (§2) All variants were tested in parallel on each occasion to control for transfection efficiency differences between experiments.

[3] = system: wild-type and variant SNAP-GIPR; assay: Surface SNAP-GIPR expression (SNAP-tag labelling) in AD293 cells; conditions: for AD293 Surface: Fig S3E, mean; for Surface SNAP-GIPR expression: sheet Fig 1C;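 on all read-outs here: scaled to the experimental average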
Outline: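 Read-out: whole-cell fluorescence of surface-only SNAP label (Alexa Fluor 647, 500 nM, 10 min, RT), wide-field 20X, several FOVs per well. Flat-field corrected, phase-contrast masked, nontransfected-well signal subtracted; normalized to experiment mean or wild-type.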

[4] = system: wild-type and variant SNAP-GIPR; assay: cADDis cAMP imaging in AD293 cells, ensemble, expression-matched and per decile; conditions: Fig S3F, cADDis, mean
Description: AD293 cells were reverse transfected with the GIPR variant or wild-type plasmids using Lipofectamine 2000 and cotransduced with the cADDis Green Up BacMam (10 μl per well, Montana Molecular, USA), in 96-well, poly-D-lysine–coated microplates. All variants were tested in parallel on each occasion to control for transfection efficiency differences between experiments. After 24 hours, cells were labeled using 500 nM SNAP-Surface Alexa Fluor 647 for 10 min at room temperature. Cells were washed three times and then imaged in KRBH buffer containing 6 mM glucose and 0.1% BSA. Imaging was performed at 37°C by wide-field microscopy using the same microscope as in the “Assessment of surface GIPR expression by SNAP-tag labeling in cell lines” section, with 9 FOVs for both cADDis and SNAP-Surface fluorescence acquired from each well using a 10X, 0.45 NA air objective. […] Flat-field correction was performed using BaSiC ([72]), drift correction was performed using SIFT, and a maximum intensity projection of the cADDis channel was used to segment individual cells. cAMP responses were determined by quantifying the cADDis fluorescence intensity for each cell at each time point. Nonviable cells or noncell objects were excluded according to criteria for allowable cell IBMX/FSK responses. […] The cADDis mask was then used to quantify the SNAP-Surface signal from each cell. Wild-type SNAP-Surface readings were split into deciles, and these deciles were subsequently used to categorize variant-transfected cells to match against the wild type. After trimming the top and bottom deciles, the mean was taken of each decile mean for surface expression level or cAMP response, which achieved matched expression levels by effectively applying an inverse weighting to counteract differences in cell number in each decile for different variants. Ensemble expression levels or cAMP responses were calculated without regard to deciles. Variant cADDis responses were also analyzed within their own surface expression deciles.

[5] = system: wild-type and variant SNAP-GIPR; assay: Constitutive and agonist-mediated internalization, reversible SNAP-tag labelling, AD293 cells; design: key to Internalisation, Vehicle / Internalisation, +GIP / Internalisation, GIP-only: % internalization: residual fluorescence after Mesna vs pre-Mesna; Surface expression: unit not given here; conditions: Mean
Description: as §1

[6] = system: wild-type and variant SNAP-GIPR; assay: Surface SNAP-GIPR expression (SNAP-tag labelling) in INS-1 cells; conditions: Fig 4G; Mean
Description: Twenty-four hours before the experiment, AD293 or INS-1 cells were reverse transfected with GIPR variant or wild-type plasmids using Lipofectamine 2000 in 96-well, clear-bottom, black microplates precoated with poly-D-lysine. All variants were tested in parallel on each occasion to control for transfection efficiency differences between experiments. Cells were then labeled using the cell-impermeant probe SNAP-Surface Alexa Fluor 647 (500 nM, New England Biolabs, USA) for 10 min at room temperature to label only surface GIPR. […] Several fields of view (FOVs) were acquired within each well using a 20X, 0.75–numerical aperture (NA) air objective. Surface GIPR fluorescence was quantified after flat-field correction using BaSiC ([72]) and segmenting using Phantast ([73]), which generates a mask based on the phase contrast images to demarcate cell versus noncell. Wide-field imaging of the surface-specific labeling achieved by SNAP-Surface probes means that surface expression can be established from whole-cell fluorescence, after subtracting nonspecific fluorescence from a separate well containing nontransfected cells processed in parallel from the same experiment. Data were normalized by dividing by the average specific signal across each experiment, or by the wild-type value, as indicated in the figure legends.

[7] = system: wild-type and variant SNAP-GIPR; assay: Single-concentration GIP cAMP response by HTRF in INS-1 cells; conditions: Fig S3E, mean
Description: as §2

B1: R131S (protein, UniProt P48546 22-466, looked up, variant R131S)
Gastric inhibitory …: RAETGSKGQTAGELYQRWERYRRECQETLAAAEPPSGLACNGSFDMYVCWDYAAPNATARASCPWYLPWHHHVAAGFVLRQCGSDGQWGLWRDHTQCENPEKNEAFLDQSLILERLQVMYTVGYSLSLATLLLALLILSLFRRLHCTRNYIHINLFTSFMLRAAAILSRDRLLPRPGPYLGDQALALWNQALAACRTAQIVTQYCVGANYTWLLVEGVYLHSLLVLVGGSEEGHFRYYLLLGWGAPALFVIPWVIVRYLYENTQCWERNEVKAIWWIIRTPILMTILINFLIFIRILGILLSKLRTRQMRCRDYRLRLARSTLTLVPLLGVHEVVFAPVTEEQARGALRFAKLGFEIFLSSFQGFLVSVLYCFINKEVQSEIRRGWHHCRLRRSLGEEQRQLPERAFRALPSGSGPGEVPTSRGLSSGTLPGPGNEASRELESYC
+GIP internalisation (100 nM) ([1]; Fig 4G, GIP 100 nM): 0.7402
GIP-specific internalisation (100 nM) ([1]; Fig 4G, GIP 100 nM): 0.1769
Constitutive internalisation (100 nM) ([1]; Fig 4G): 0.5633
Internalisation, +GIP ([1]; Fig S4C, INS-1): 45.9917
Internalisation, GIP-only ([1]; Fig S4C, INS-1): 10.9733
Internalisation, Vehicle ([1]; Fig S4C, INS-1): 35.0183
AD293 100 pM HTRF ([2]; AD293, 100 pM): 0.4337
AD293 100 nM HTRF ([2]; AD293, 100 nM): 1.306
AD293 Surface ([3]; column repeated, paired with cAMP 100 nM): 1.362
AD293 Surface ([3]; paired with cAMP 100 pM): 1.362
Surface SNAP-GIPR expression ([3]; replicate 1): 0.7106
Surface SNAP-GIPR expression ([3]; replicate 2): 2.058
Surface SNAP-GIPR expression ([3]; replicate 3): 0.7777
Surface SNAP-GIPR expression ([3]; replicate 4): 1.042
Surface SNAP-GIPR expression ([3]; replicate 5): 1.12
Surface SNAP-GIPR expression ([3]; replicate 6): 1.654
Surface SNAP-GIPR expression ([3]; replicate 7): 1.227
Surface SNAP-GIPR expression ([3]; replicate 8): 1.559
Surface SNAP-GIPR expression ([3]; replicate 9): 1.551
Surface SNAP-GIPR expression ([3]; replicate 10): 1.359
Surface SNAP-GIPR expression ([3]; replicate 11): 1.194
Surface SNAP-GIPR expression ([3]; replicate 12): 1.256
Surface SNAP-GIPR expression ([3]; replicate 13): 1.318
Surface SNAP-GIPR expression ([3]; replicate 14): 0.9106
Surface SNAP-GIPR expression ([3]; replicate 15): 1.304
Surface SNAP-GIPR expression ([3]; replicate 16): 1.372
Surface SNAP-GIPR expression ([3]; replicate 17): 1.574
Surface SNAP-GIPR expression ([3]; replicate 18): 1.448
Surface SNAP-GIPR expression ([3]; replicate 19): 1.382
Surface SNAP-GIPR expression ([3]; replicate 20): 1.357
Surface SNAP-GIPR expression ([3]; replicate 21): 1.273
Surface SNAP-GIPR expression ([3]; replicate 22): 1.627
Surface SNAP-GIPR expression ([3]; replicate 23): 1.424
Surface SNAP-GIPR expression ([3]; replicate 24): 1.463
Surface SNAP-GIPR expression ([3]; replicate 25): 1.446
Surface SNAP-GIPR expression ([3]; replicate 26): 1.405
Surface SNAP-GIPR expression ([3]; replicate 27): 1.475
Surface SNAP-GIPR expression ([3]; replicate 28): 1.453
Surface SNAP-GIPR expression ([3]; replicate 29): 1.54
Surface SNAP-GIPR expression ([3]; replicate 30): 1.363
Surface SNAP-GIPR expression ([3]; replicate 31): 1.317
Surface SNAP-GIPR expression ([3]; replicate 32): 1.55
Surface SNAP-GIPR expression ([3]; replicate 33): 1.587
Surface SNAP-GIPR expression ([3]; replicate 34): 1.477
Surface SNAP-GIPR expression ([3]; replicate 35): 1.359
Surface SNAP-GIPR expression ([3]; replicate 36): 1.207
Surface SNAP-GIPR expression ([3]; replicate 37): 1.251
Surface SNAP-GIPR expression ([3]; replicate 38): 1.505
Surface SNAP-GIPR expression ([3]; replicate 39): 1.263
Surface SNAP-GIPR expression ([3]; replicate 40): 1.363
Surface SNAP-GIPR expression ([3]; replicate 41): 1.33
AD293 100 pM cADDis ([4]; AD293, 100 pM): 25.6916
AD293 100 nM cADDis ([4]; AD293, 100 nM): 36.03
+GIP internalisation (100 nM) ([5]; Fig 4E, GIP 100 nM): 0.7235
GIP-specific internalisation (100 nM) ([5]; Fig 4E, GIP 100 nM): 0.2116
Constitutive internalisation (100 nM) ([5]; Fig 4E): 0.5118
Surface expression ([5]; Fig 4E): 1.308
Internalisation, +GIP ([5]; Fig S4C, AD293): 55.4494
Internalisation, GIP-only ([5]; Fig S4C, AD293): 16.1484
Internalisation, Vehicle ([5]; Fig S4C, AD293): 39.3009
Surface expression [6]: 1.447
INS-1 cAMP (100 nM) [7]: 1.548

From PMC13544220, “Glycemic and bodyweight effects of GIPR coding variation reflect differences in surface expression and intrinsic functional impairment” (Science Advances, 2026)
